Like-named read-outs stand apart in the source and are kept apart here.
Target: T1, recombinant TLR4 (UniProt O00206 24-631)
T1 construct: Toll-like receptor 4 (TLR4), recombinant protein from R&D Systems; also called Toll-like receptor 4; source: bought: R&D Systems
Test: BLI; Octet QKe; recombinant TLR4 (1 ug/mL) immobilised in PBS by amine coupling on an AR2G sensor, blocked with 1 M ethanolamine pH 8.5; sensors dipped in 2-fold dilutions of Der f 38 (6400-400 nM and blank); association 300 s, dissociation 1200 s in assay buffer

T1 sequence (O00206 24-631): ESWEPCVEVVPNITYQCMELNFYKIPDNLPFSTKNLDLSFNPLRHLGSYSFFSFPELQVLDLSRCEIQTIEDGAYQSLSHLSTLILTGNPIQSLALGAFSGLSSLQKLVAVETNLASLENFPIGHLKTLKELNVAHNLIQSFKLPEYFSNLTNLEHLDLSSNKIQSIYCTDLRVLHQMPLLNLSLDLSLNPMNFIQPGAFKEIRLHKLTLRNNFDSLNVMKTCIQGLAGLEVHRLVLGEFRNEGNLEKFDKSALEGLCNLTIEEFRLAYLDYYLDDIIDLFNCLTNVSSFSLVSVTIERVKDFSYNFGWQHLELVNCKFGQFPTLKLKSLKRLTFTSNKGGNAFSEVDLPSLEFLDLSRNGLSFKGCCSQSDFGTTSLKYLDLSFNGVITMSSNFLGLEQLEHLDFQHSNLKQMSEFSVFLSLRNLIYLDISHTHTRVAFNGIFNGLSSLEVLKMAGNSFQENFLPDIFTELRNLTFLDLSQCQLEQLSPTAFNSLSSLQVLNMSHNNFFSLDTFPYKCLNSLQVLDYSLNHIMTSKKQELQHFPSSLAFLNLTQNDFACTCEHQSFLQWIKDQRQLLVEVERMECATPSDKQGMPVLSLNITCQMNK

Row | Kd | Kd (both partners purified) | Molecule
1 | 74 nM | – | recombinant Der f 38 (natural protein)
2 | – | 1.56 nM | recombinant MD2 (natural protein, UniProt Q9Y6Y9 19-160, looked up, MD2 (MD-2, lymphocyte antigen 96), recombinant protein from R&D Systems; source: bought: R&D Systems) QKQYWVCNSSDASISYTYCDKMQYPISINVNPCIELKRSKGLLHIFYIPRRDLKQLYFNLYITVNTMNLPKRKEVICRGSDDDYSFCRALKGETVNTTISFSFKGIKFSKGKYKCVVEAISGSPEEMLFCLEFVILHQPNSN
